# From patent US20250361297A1 (ADAPTAM THERAPEUTICS S L, published 2025)
# Assays:
# [1] = biological target: T1, mouse Siglec-15, full length, expressed on HEK293T cells (mouse); assay: IgG1 titration, flow cytometry on HEK293T cells expressing mouse Siglec-15
# T1 construct: also called mS15; HEK293T cells expressing mouse Siglec-15
# T1 chain: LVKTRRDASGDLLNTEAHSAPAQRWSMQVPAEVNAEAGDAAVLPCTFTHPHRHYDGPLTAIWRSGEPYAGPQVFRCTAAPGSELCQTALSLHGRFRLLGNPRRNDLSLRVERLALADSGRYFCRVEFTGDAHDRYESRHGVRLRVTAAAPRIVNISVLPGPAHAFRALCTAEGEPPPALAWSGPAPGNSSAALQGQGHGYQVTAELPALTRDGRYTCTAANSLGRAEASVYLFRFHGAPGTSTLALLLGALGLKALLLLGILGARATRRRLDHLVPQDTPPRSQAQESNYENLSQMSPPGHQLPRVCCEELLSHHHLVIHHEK
# [2] = biological target: T2, human Siglec-15, full length, expressed on cells (human, UniProt Q6ZMC9 20-328); assay: IgG1 titration, flow cytometry on MOLM-13 human Siglec-15 cells
# T2 construct: also called hS15; MOLM-13 Siglec-15 expressing cells
# T2 sequence: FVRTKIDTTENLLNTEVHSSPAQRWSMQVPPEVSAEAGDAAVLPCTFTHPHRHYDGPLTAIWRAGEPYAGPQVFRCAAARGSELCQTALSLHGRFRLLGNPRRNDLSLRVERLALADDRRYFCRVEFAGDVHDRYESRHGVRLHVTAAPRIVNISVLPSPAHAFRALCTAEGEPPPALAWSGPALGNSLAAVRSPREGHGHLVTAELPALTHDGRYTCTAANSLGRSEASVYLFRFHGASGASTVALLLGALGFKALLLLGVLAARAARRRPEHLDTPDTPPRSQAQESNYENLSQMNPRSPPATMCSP
# [3] = biological target: T3, truncated human Siglec-15 comprising only domain 2 (D2), expressed on HEK293T cells (human, UniProt Q6ZMC9 168-251, limits assumed); assay: flow cytometry, HEK293T cells expressing only domain 2 of human Siglec-15, fold change of Siglec15 gMFI relative to 2ry control
# T3 construct: also called domain 2-only human Siglec-15; Siglec-15 Domain 2 (D2) HEK293T cells
# T3 sequence: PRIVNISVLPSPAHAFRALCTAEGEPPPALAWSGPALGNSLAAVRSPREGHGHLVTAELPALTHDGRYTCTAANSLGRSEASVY
# [4] = biological target: T4, recombinant Siglec-15 (bispecific antibody affinity assay) (Homo sapiens (Human), UniProt Q6ZMC9 20-263, limits assumed); assay: antibody as ligand, human Siglec15 as analyte; legend paragraph 114 says BLI, methods paragraph 422 say Biacore SPR, table in RU
# T4 sequence: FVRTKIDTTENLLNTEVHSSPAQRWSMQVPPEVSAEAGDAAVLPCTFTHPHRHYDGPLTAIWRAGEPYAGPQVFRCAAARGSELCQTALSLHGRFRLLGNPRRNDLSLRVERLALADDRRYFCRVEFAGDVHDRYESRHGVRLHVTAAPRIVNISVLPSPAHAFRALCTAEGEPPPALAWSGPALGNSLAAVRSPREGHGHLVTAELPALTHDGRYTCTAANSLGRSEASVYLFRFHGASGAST
# recombinant CD3 = recombinant CD3 (UniProt P07766 23-126; P09693 23-116); assay: antibody as ligand, 'Human CD3 epsilon&CD3 gamma' as analyte; legend paragraph 116 says BLI, methods paragraph 422 say Biacore SPR, table in RU
# Sequence of recombinant CD3 (P07766 23-126, form in doubt, chain 1 of 2): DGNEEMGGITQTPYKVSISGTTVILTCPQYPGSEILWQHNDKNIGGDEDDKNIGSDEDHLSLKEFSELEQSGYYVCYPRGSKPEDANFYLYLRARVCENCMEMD
# Sequence of recombinant CD3 (P09693 23-116, form in doubt, chain 2 of 2): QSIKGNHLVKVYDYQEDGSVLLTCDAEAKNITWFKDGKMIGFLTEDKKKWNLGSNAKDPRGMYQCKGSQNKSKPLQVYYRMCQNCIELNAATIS
# [5] = biological target: T5, recombinant human Siglec-15-his protein (Bonopusbio) (human, UniProt Q6ZMC9 20-263); assay: SPR (Biacore T200), antibody on CM5 chip, Siglec-15-his as analyte
# T5 construct: Bought (CW37-50 ug in the ELISA; the SPR paragraph prints CW70-50 ug); whole entry named; also called recombinant human Siglec-15 protein
# T5 sequence: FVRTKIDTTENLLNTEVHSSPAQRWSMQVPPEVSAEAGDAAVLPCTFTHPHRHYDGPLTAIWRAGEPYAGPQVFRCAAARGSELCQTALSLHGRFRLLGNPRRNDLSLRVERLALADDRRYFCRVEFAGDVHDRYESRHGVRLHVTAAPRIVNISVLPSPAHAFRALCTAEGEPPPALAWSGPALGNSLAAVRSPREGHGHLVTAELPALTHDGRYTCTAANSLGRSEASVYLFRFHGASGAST
# [6] = biological target: T2, human Siglec-15, full length, expressed …; assay: flow cytometry, HEK293T cells expressing human Siglec-15, anti-human IgG-PE, MFI
Binder,EC50 [1] [µg/mL],EC50 [2] [µg/mL],binding result [3],Kd [5] [nM],koff [5] [s⁻¹],kon [5] [M⁻¹ s⁻¹],other results
"ZLA-1214-B07 (antibody, V domains shown, Fully human, from phage display) VH: QVQLVQSGAEVKKPGSSVKVSCKASGGTFSSYAISWVRQAPGQGLEWMGGIIPIFGTANYAQKFQGRVTITADESTSTAYMELSSLRSEDTAVYYCARDGGRDGYNPKKILEFDYWGQGTLVTVSS VL: not shown",0.102,0.133,no binding,,,,
"BsAb-2 (bispecific antibody, human IgG1, kappa, L234A L235A, 2 + 1 format; also called anti-Siglec-15/CD3 bispecific antibody, Format-2: KIH & scFv (2 + 1)) light 1: not shown heavy 1: QVQLQQSGPELVKPGASVKISCKASGYAFSSSWMNWVKQRPGKGLEWIGRIYPGHGETNYNGKFKDKATVTADKSSSTTYMQLSSLTSEDSAVYFCARVDNSDPYYFDYWGQGTTLTVSSASTKGPSVFPLAPSSKSTSGGTAALGCLVKDYFPEPVTVSWNSGALTSGVHTFPAVLQSSGLYSLSSVVTVPSSSLGTQTYICNVNHKPSNTKVDKKVEPKSCDKTHTCPPCPAPEAAGGPSVFLFPPKPKDTLMISRTPEVTCVVVDVSHEDPEVKFNWYVDGVEVHNAKTKPREEQYNSTYRVVSVLTVLHQDWLNGKEYKCKVSNKALPAPIEKTISKAKGQPREPQVCTLPPSRDELTKNQVSLSCAVKGFYPSDIAVEWESNGQPENNYKTTPPVLDSDGSFFLVSKLTVDKSRWQQGNVFSCSVMHEALHNHYTQKSLSLSPGK heavy 2: not shown light 2: not shown",,,,,,,Kd [4]: 0.17 nM; koff [4]: 0.000133 s⁻¹; kon [4]: 786000 M⁻¹ s⁻¹; Kd (recombinant CD3): 137 nM; koff (recombinant CD3): 0.00739 s⁻¹; kon (recombinant CD3): 53800 M⁻¹ s⁻¹
"S15B1-VH3 + VL2 (antibody, V domains shown, Humanized S15B1; also called humanized S15B1 VH3+VL2; huS15B1) VH: QVQLVQSGAEVKKPGASVKVSCKASGYAFSSSWMNWVKQAPGQGLEWIGRIYPGHGETNYNGKFKDRATMTADTSTSTVYMELSSLRSEDTAVYFCARVDNSDPYYFDYWGQGTTVTVSS VL: DIVLTQSPASLAVSPGQRATITCRASKSVSTSGYSYMHWYQQKPGQPPKLLIYLASNLESGVPARFSGSGSGTDFTLTINPVEAEDTATYYCQHGRELPFTFGGGTKLEIK",,,,0.0653,0.000293,4.49e+06,EC50 (read off the curve) [6]: ~1 nM
"S15B1-VH1 + VL1 (antibody, V domains shown, Humanized S15B1; also called humanized S15B1 VH1+VL1; huS15B1) VH: QVQLVQSGAEVKKPGASVKVSCKASGYAFSSSWMNWVRQAPGQGLEWIGRIYPGHGETNYNGKFKDRVTMTADTSTSTVYMELSSLRSEDTAVYFCARVDNSDPYYFDYWGQGTTVTVSS VL: DIVLTQSPASLAVSPGQRATITCRASKSVSTSGYSYMHWYQQKPGQPPKLLIYLASNLESGVPARFSGSGSGTDFTLTINPVEAEDTANYYCQHGRELPFTFGGGTKLEIK",,,,0.136,0.000455,3.35e+06,
"S15B1-VH2 + VL1 (antibody, V domains shown, Humanized S15B1; also called humanized S15B1 VH2+VL1; huS15B1) VH: QVQLVQSGAEVKKPGASVKVSCKASGYAFSSSWMNWVRQAPGQGLEWIGRIYPGHGETNYNGKFKDRVTMTADTSTSTVYMELSSLRSEDTAVYFCARVDNSDPYYFDYWGQGTTVTVSS VL: DIVLTQSPASLAVSPGQRATITCRASKSVSTSGYSYMHWYQQKPGQPPKLLIYLASNLESGVPARFSGSGSGTDFTLTINPVEAEDTANYYCQHGRELPFTFGGGTKLEIK",,,,0.125,0.000473,3.8e+06,
"S15B1-VH1 + VL2 (antibody, V domains shown, Humanized S15B1; also called humanized S15B1 VH1+VL2; huS15B1) VH: QVQLVQSGAEVKKPGASVKVSCKASGYAFSSSWMNWVRQAPGQGLEWIGRIYPGHGETNYNGKFKDRVTMTADTSTSTVYMELSSLRSEDTAVYFCARVDNSDPYYFDYWGQGTTVTVSS VL: DIVLTQSPASLAVSPGQRATITCRASKSVSTSGYSYMHWYQQKPGQPPKLLIYLASNLESGVPARFSGSGSGTDFTLTINPVEAEDTATYYCQHGRELPFTFGGGTKLEIK",,,,0.159,0.000563,3.54e+06,
"S15B1-VH2 + VL2 (antibody, V domains shown, Humanized S15B1; also called humanized S15B1 VH2+VL2; huS15B1) VH: QVQLVQSGAEVKKPGASVKVSCKASGYAFSSSWMNWVRQAPGQGLEWIGRIYPGHGETNYNGKFKDRVTMTADTSTSTVYMELSSLRSEDTAVYFCARVDNSDPYYFDYWGQGTTVTVSS VL: DIVLTQSPASLAVSPGQRATITCRASKSVSTSGYSYMHWYQQKPGQPPKLLIYLASNLESGVPARFSGSGSGTDFTLTINPVEAEDTATYYCQHGRELPFTFGGGTKLEIK",,,,0.0946,0.000326,3.44e+06,EC50 (read off the curve) [6]: ~1 nM
"S15B1-VH4 + VL1 (antibody, V domains shown, Humanized S15B1; also called humanized S15B1 VH4+VL1; huS15B1) VH: QVQLVQSGAEVKKPGASVKVSCKASGYAFSSSWMNWVKQAPGQGLEWIGRIYPGHGETNYNGKFKDRATMTADKSTSTVYMELSSLRSEDTAVYFCARVDNSDPYYFDYWGQGTTVTVSS VL: DIVLTQSPASLAVSPGQRATITCRASKSVSTSGYSYMHWYQQKPGQPPKLLIYLASNLESGVPARFSGSGSGTDFTLTINPVEAEDTANYYCQHGRELPFTFGGGTKLEIK",,,,0.0938,0.000385,4.1e+06,
"S15B1-VH4 + VL2 (antibody, V domains shown, Humanized S15B1; also called humanized S15B1 VH4+VL2; huS15B1) VH: QVQLVQSGAEVKKPGASVKVSCKASGYAFSSSWMNWVKQAPGQGLEWIGRIYPGHGETNYNGKFKDRATMTADKSTSTVYMELSSLRSEDTAVYFCARVDNSDPYYFDYWGQGTTVTVSS VL: DIVLTQSPASLAVSPGQRATITCRASKSVSTSGYSYMHWYQQKPGQPPKLLIYLASNLESGVPARFSGSGSGTDFTLTINPVEAEDTATYYCQHGRELPFTFGGGTKLEIK",,,,0.138,0.000234,1.69e+06,
"S15B1-VH3 + VL1 (antibody, V domains shown, Humanized S15B1; also called humanized S15B1 VH3+VL1; huS15B1) VH: QVQLVQSGAEVKKPGASVKVSCKASGYAFSSSWMNWVKQAPGQGLEWIGRIYPGHGETNYNGKFKDRATMTADTSTSTVYMELSSLRSEDTAVYFCARVDNSDPYYFDYWGQGTTVTVSS VL: DIVLTQSPASLAVSPGQRATITCRASKSVSTSGYSYMHWYQQKPGQPPKLLIYLASNLESGVPARFSGSGSGTDFTLTINPVEAEDTANYYCQHGRELPFTFGGGTKLEIK",,,,0.069,0.000257,3.73e+06,EC50 (read off the curve) [6]: ~1 nM
"ZLA-1212-B05 (antibody, V domains shown, Fully human, from phage display; also called clone ZLA-1212-B05) VH: QVQLVQSGGGVVQPGRSLRLSCAASGFTFSSYAMHWVRQAPGKGLEWVAVISYDGSNKYYADSVKGRFTISRDNSKNTLYLQMNSLRAEDTAVYYCAREGGSYYGYFDYWGQGTLVTVSS VL: QSVLTQPPSVSVAPGKTARITCGGNNIGSKSVHWYQQKPGQAPVLVIYDDSDRPSGIPERFSGSNSGNTATLTISRVEAGDEADYYCQVWDSSSDHRVFGGGTKLTVL",0.168,0.215,no binding,,,,
"ZLA-1212-E09 (antibody, V domains shown, also called clone ZLA-1212-E09) VH: QVQLVQSGGGVVQPGRSLRLSCAASGFTFSSYGMHWVRQAPGKGLEWVAVISYDGSNKYYADSVKGRFTISRDNSKNTLYLQMNSLRAEDTAVYYCAKDDSGYYDSSGYDYWGQGTLVTVSS VL: QSVLTQPPSVSGAPGQRVTISCTGSSSNIGAGYDVHWYQQLPGTAPKLLIYGNSNRPSGVPDRFSGSKSGTSASLAITGLQAEDEADYYCQSYDSSLSGVVFGGGTKLTVL",0.191,0.178,no binding,,,,
"ZLA-1214-D08 (antibody, V domains shown, Fully human, from phage display) VH: EVQLVQSGAEVKKPGASVKVSCKASGYTFTGYYMHWVRQAPGQGLEWMGRINPNSGGTNYAQKFQGRVTMTRDTSTSTAYMELSRLRSDDTAVYYCARVINDAFDMWGQGTMVTVSS VL: not shown",0.103,0.106,no binding,,,,
"ZLA-1243-E01 (antibody, V domains shown, Fully human, from phage display) VH: QVQLVQSGGGLVQPGRSLRLSCAASGFTFDDYAMHWVRQAPGKGLEWVSGISWNSGSIGYADSVKGRFTISRDNAKNSLYLQMNSLRAEDTALYYCAKGLWPSYDLDAFDIWGQGTMVTVSS VL: QSALTQPASVSGSPGQSITLSCTGTSSDVGAYNFVSWYQQHPGTAPKLMIYEVSNRPSGVSDRFSGSKSGNTASLTISGLQAEDEADYYCSSYTSTIPPFVFGTGTKVTVL",0.0849,0.174,no binding,,,,
